# Reference: the DeepSol protein solubility set
# Assay: soluble on expression in E. coli; label from the status in PepcDB or PDB records
row,Sequence,soluble on expression in E. coli
1,VNKKDITYWEKRQERKYLAGEKKLDEYYKGLQKAFRQAKREIQSVINDFYMRYAKENKVSYAEAQKLLDKAEIGELQDFIDLVNKNMGKYNRKLNNMSIKARITRYQALEKQIDAILQQLYAIEYEYKGKELLKEVYEDSYYRTWFNIDQYHGFHQEFAQINPRTIEELIKYPWNGASFSDRIWKQKDHMLQVLKEDITTMLIQGKNPQTLARDFARRFKTKEYEAYRLLHTESSFIIEQGTLAAYKEDGVEKYQILATLDMRTSDICRSEDGKIYDVDEATVGVNYPPYHPFCRTTTVPYYEDAEVGTRVARDPVTGRSYEVPANMTYEQWKNRYIDQPDNIIRQEILSNPERLDNYSIQHYNKHKEGTKQYEQYKQSRLKKGQTEQSSLLISYDEAKEIIKKYAGTGVFSRDRKGKWRNEEFVDVDSIIGVVHNIDGTVTPTNRIQIKYGKNSVHIVPVLPRKERNK,soluble
2,MGSDKIHHHHHHMRTMVAVRLRNLVESDRERLLIWRNSPDVSAYMYSDHKIGHEEHDHWFDVARHDPRRRYWIIEADGEPVGLANLADIDLVHRRCAWAYYLASPKVRGLGVGSFVEFQIIEYVFNQLHLNKLWCEVLISNESVWRLHELYGFQREALFRQHVMKQGHEVDVIGLGLLASDWAARRDAMAERLCAKGYTIPDLTCRAA,not soluble
3,MGSDKIHHHHHHMKEVTLGRGMIPGVVPSLAFRRDVSSIVAKRNPSPSIRASFPVRDLFHALARSAGDSDTHHAARKFLDERLVEVAHLESDLPHDIAALPQWLEQRCARVRSDYRAYLADRHAGQQARYFSCRAHALHFLQSMAPSRMVEGAWLYGFLKHWREARFAPMCRVYLRNLGDGDPGCNQVSLYQKLLDRNGCADWHGLDDQYYVQGAIRLALGHHVDHYLPEIIGFNLGYDQVSLPMLIAAYELSEQGVLPHYFTLHVTEDDAGASSAMKLLGSLLDTADSAKAREMLLHRVNNGYKLHRLGLDIPGIVASFDLQKAFLAVMQPCAAYLERVYRIDCMERGIRGRWTDSLPLPLLLQQLCNEGWMHPDEKGKTRLWQVLERGNLLPAPGYPQQVVVDWSARSDEYGKRLPHTDVADLVPVSPPPARRPEEAEEHWADFNESGSQADLMEHMIRLLSPLAHHTQEGLKAARIYKSILEKGSELYSQHSALFLWHGRV,not soluble
4,MGSDKIHHHHHHMNSTTKSKEFEQHYSGTLSDYVTAIAWSPQGKTLAATSAAGEVVLWNDGELTTLQTGNGKSVDCLAFSPDGKFLAVGGQDGQVKIWQNTELIATLENAPAWVDKLAWNYTSNQLAFSLGRYVQVWDVDTHEIVVTLNFDNSSVLGIDWRIDGQYLAISGYKGVKIWHSQNWDEEPYSLDMTTVSLAMAWSPDGKFLASGNMDRSVTVLEWNNPDPWVMRGFPGKIRQLAWSEAMTKVGAPILASSSVEGIVVWEKLEDDTLGWEARVLTNHVGTINAIAFAPKSFLLASAAADGWLCLWNQAKEVSQIITGVSGGFSTLAWHPQGKLLAAGGEQGELVIWSKVLRGQGFGRS,not soluble
5,MKDNRYSPDWPQLALQKKQAVGWVCERCGVQCLKPGEGKGLLKEERYRLRMAVHHCDYDPSNNSPSNLMALCSPCHLHYHQRQRGNVTPGQLSLGFVYRSCLVCAQQLEHHHHHH,not soluble
6,MSTRLCEPSLRDDGAQRGTPASHGKWCDTGAFKLDETPSPVVANVSSTSDASFQFNRTPSPGKHQNHAADRSMWSLDDFVIIRKLDEGRFGKVYLAREKQSKCAVVLKCISKDMIRFHSLAHQLQREVELQEYAGRYHKNVLRLFAYFWDDVRIVLVLEYADSGTLQDLLDCYREKEQRSSLPDDKVRTILLQLLSALAFLHERDIIHRDVKPDNILFHGEKLLLADFSWAVRVNNSDPRYCRRHTVCGTLDYLAPEQVLKRGCTTKADLWAVGVVAYRMLCGFLPFEMLDARDVCSCIASGAIRYPSQLSPTARHFLQGLLRVDEALRFSCQEALNHPFMRGDCNCRISNRYIESKHRARAEEPVLQHQGSFDTTKNGTRWIQQKKESWCCSRAPTLNVPEPVHHTGTNCVANHSHNHKDMDKSTTLSCPSASDIVRVRATTERVRCPVDDYSGTSASLITISPLRSTECMQSLSNVSTPSIVSQTHSEWLHSASPISHTPVVAAAATSKCSRDDVGTSSYGVSYSGIRLHNSASDGSGTTTGQHHAQLGTSTHSSFAFAPPTSARYRRDISGYHRINGRGSSPSDHEEYEVASCALRLCFDDEDDADNNCSGALHAAASNRPKTLKSGVMMNGTAPPSHHKGSSYDVR,not soluble
7,MNQPIELSLEQQFSIRSFATQVQNMSHDQAKDFLVKLYEQMVVREATYQELLKHQWGLDSGSTPA,soluble
8,MAVSHSVKERTISENSLIILLQGLQGRVTTVDLRDESVAHGRIDNVDAFMNIRLAKVTYTDRWGHQVKLDDLFVTGRNVRYVHIPDDVNITSTIEQQLQIIHRVRNFGGKGQGRWEFPPKNCK,not soluble
9,MGEAYAEVFPDPDGISGHVKGVVDINAPPEKVWRIMTDCAAAKVMITTLAVCRIVEGDMARGWDIREHVTRRNLVFPGLRIVFRSDYEPYSRIKFKLVGGDLKVEQGEWKLQALDGGRRTRVLYDNRLAVDWPVPKALIREALRKDTPKVLMNLKRLCELEHHHHHH,not soluble
10,MEVGMIPRVYLGHEWFGAERILSEYQVPEDCGAQVLFLGIPRNAPEDGGNIEALEYEAYPEMAIKEMEKIRQETIEKFGVKEVFIHHRLGLVKIGEPSFLVLAVGGHREETFKACRYAVDETKKRVPIWKKEIFKEGKGEWVLGEKKNASGQTK,soluble
11,MSGGQQERHVLILNTVGGRRAIALEAAAYSLGRDESNAIVIDFETVSRQHAILLRVPVPGTTSYRYRLVDGNANGKPSTNGTFVNGKRISSHELQHGDVILFGRKAKASYLLLSMADTEFSQYLQSIAFQSIKSDLRGAKETLVGMELSGELRRTPNRELVAAGATQLHPELEHHHHHH,soluble
12,MKTIRYALKKEKEMMKKFIAPLLALLVSGCQIDPYTHAPTLTSTDWYDVGMEDAISGSAIKDDDAFSDSQADRGLYLKGYAEGQKKTCQTDFTYARGLSGKSFPASCNNVENASQLHEVWQKGADENASAIRLN,not soluble
13,MIEINNLSKRYRNKQIFNHLTMSFDSNRLTVLLGDNGAGKSTLLRMIAGIEKANDGTINYFGEKWNQRQIQNHIGYVPQDIALFEHMTVAENIKFFKSLCKNPINDTTINEYLQQLNFDDTSAKVSTLSGGNKRKINILVGLLGQPRILILDEPTVGIDLKSRHDIHQLLNIMKSKCLIILTTHHLDEVEALADDIKLIGQDPFYQHVLEDKQWTYTYY,not soluble
14,ITKAINYMAKRRIGALLTIERDTGMGDYIETGIPLNAKVSSELLINIFIPNTPLHDGAVIMKNNEIAAAACYLPLSESPFISKELGTRHRAAVGISEVTDSLTIIVSEETGGVSVAKNGD,not soluble
15,MGSDKIHHHHHHAGCETEGEDIDMRFETCTVSFVQQELRSSYEVYFNGEKSINRSTSVKKNSTLKLEVYKIGEKQPELSQEITLDNSKDIELLKLVGRDIAISSSLEEYTTFTPIISYFNPNTDLYTVTFNNGELSNKVKNYIAEADLSGTLKIVRNVDGQVLYEQDMTIMPEGQFSLMQLSDTDFLDISDGEEADPESRQYTKIRFFYTADAFPGHDKLKLVVYLMDLDAMQFTAPIATIDLEAGKISEYIQIDNDAFGQGVVNGVYDLIDESGNMIVNNLEHFNTSIPIGTSDNKFMTFRFMDPSHQGGDNVQCNFILSTPWK,not soluble
16,MTMRNFDLSPLMRQWIGFDKLANALQNAGESQSFPPYNIEKSDDNHYRITLALAGFRQEDLEIQLEGTRLSVKGTPEQPKEEKKWLHQGLMNQPFSLSFTLAENMEVSGATFVNGLLHIDLIRNEPEPIAAQRIAISERPALNS,not soluble
17,MIYDVFLNFSGEDVRGTFLNHFFKELERKSIIAFKDNESERSQNLSPELTHAIRESRITVVVFSKNYSSSTWCLNELLQVYECYQSMDLPVIPIFYGLDPSHVRKQTGEFGKNFEKTCRNETEACVYQWRRALCDVSNFLGYHSPNWANEATMIEQVANDVLFKLNLTPSSDFSEFVGIEDHIAAMNSVDKR,soluble
18,TITLTENKRKSMEKLSVDGVISALAFDQRGALKRMMAQHQTKEPTVEQIEELKSLVSEELTPFASSILLDPEYGLPASRVRSEEAGLLLAYEKTGYDATTTSRLPDCLDVWSAKRIKEAGAEAVKFLLYYDIDGDQDVNEQKKAYIERIGSECRAEDIPFYLEILTYDEKIADNASPEFAKVKAHKVNEAMKVFSKERFGVDVLKVEVPVNMKFVEGFADGEVLFTKEEAAQAFRDQEASTDLPYIYLSAGVSAKLFQDTLVFAAESGAKFNGVLCGRATWAGSVKVYIEEGPQAAREWLRTEGFKNIDELNKVLDKTASPWTEKM,soluble
19,VTGPGSPPLAWTELERLVAAGDVDTVIVAFTDMQGRLAGKRISGRHFVDDIATRGVECCSYLLAVDVDLNTVPGYAMASWDTGYGDMVMTPDLSTLRLIPWLPGTALVIADLVWADGSEVAVSPRSILRRQLDRLKARGLVADVATELEFIVFDQPYRQAWASGYRGLTPASDYNIDYAILASSRMEPLLRDIRLGMAGAGLRFEAVKGECNMGQQEIGFRYDEALVTCDNHAIYKNGAKEIADQHGKSLTFMAKYDEREGNSCHIHVSLRGTDGSAVFADSNGPHGMSSMFRSFVAGQLATLREFTLCYAPTINSYKRFADSSFAPTALAWGLDNRTCALRVVGHGQNIRVECRVPGGDVNQYLAVAALIAGGLYGIERGLQLPEPCVGNAYQGADVERLPVTLADAAVLFEDSALVREAFGEDVVAHYLNNARVELAAFNAAVTDWERIRGFERL,not soluble
20,MSLRFDGKVAIVTGAGGGLGKTYALELAKRGCKVVVNDLGGDRHGTSSSSSMADKVVQEIKSAGGQAVANYDSVEFGDKIVKTAIDNFGRIDIVINNAGILRDVSFLKMTELDWDLIFKVHVKGAYAVTKAAWPYMRDQKYGRIVVTSSNAGVHGNFGQANYAAAKSALIGLSNSLAQEGAKYNILANTLVPTAGSRLTETVMPQNLVDALKPDYVTPLVTYMVHDSFEESGKVFEAGAGWYGTIQYYKSKGKVISHASADDIAKNWSTITNMNGAEYIGTITEQSARLVSILEEHEASSGSSSASSGASSGGAFPSNIRSSALFQEMADGVKADPTAVKTLKSIVLYIITDGKNELGKFTLDFKSASPSVYLGDVKNGEKANATVTVADSDFVDIAAGKLNAQKAFMSGKLKVKGNVMLLQKLQTVLEKAKKSKL,not soluble
21,MDILQTRYFELSNPTTGEHKFYELTLHEDGTLISRYGRIGANGQNKTQQFNSVEAMLKAADKTTAEKLNKGYQVANAGETAAQETRHQRILRNVREFYELISNGDSKLAQRCSVEFKAFIEDEDNKEEYEDQDNELINNGIREAADWELVFFVDWKDTESMLDVLDTLCSNLNIDIVFDWGCDVPEDELKVGQIMLLAHEQLQQQGFALWHWDTGHDAYLGWIARMAYQTQIASCVQALDLDAAYPNPEKLTLEHHHHHH,soluble
